From article PMC12162218

Target: Cat1-His6 (CRISPR-associated TIR protein 1, homolog MCI0612855.1)
Assay: SEC-MALS; Cat1-His6 with NAD+ (1:10 molar ratio), no cA4; Superose 6 10/300 increase; 25 mM MES pH 6, 200 mM NaCl, 2 mM β-mercaptoethanol, 5 % glycerol

## Cat1-His6 (CRISPR-associated TIR protein 1, homolog MCI0612855.1) (enzyme)
  stoichiometry N: 2
